Measurements reported in publication PMC10771423, “Discovery and biochemical characterization of thermostable glycerol oxidases” (Applied Microbiology and Biotechnology, 2024).

Assays:
purified protein [1] = substrate: OC[C@@H](O)[C@H](O)[C@@H](O)CO; assay: purified protein; settings: 50 mM KPi pH 7.5, 25 °C, O2 as co-substrate
purified protein [2] = substrate: OCC(O)CO; assay: purified protein; settings: 50 mM KPi pH 7.5, 25 °C, O2 as co-substrate

B1: AldOCh (Thermostaphylospora chromogena) (protein)
chain: MSPTLTNWAGNIVFRAGEVHRPETLEELRTLVTRADKVRVLGSGHSFNDIADSPGVLVSPSRLPRELELDTAAGAVRVSAGIRYAELSAWLHERGFALHNLASLPHISVAGSCATATHGSGDGNGNLATAVRALTLVTAEGDLVDLDRERDGDRFRGAVVGLGALGVVVSMTLDVEPTFEVRQRVYEDLPLEAACDHFSDIMGCAYSVSMFSDWTSSRINQVWVKERVDEDGSRPPGPASFGAKPADGPRHPIARMPAGNCTEQLGVPGPWFARLPHFRPEFTPSGGQERQAEYLVPRRHAVAALRELAAIGDRIAPVLQISEIRTIAADDLWLSPCQGRDTVGFHFTLIPDTAAVLPVLELIEERLAPFEARPHWGKLFTTPPAVLRSRYDRLPDFQALARDLDPGGKFANEFISRNLLDA
Purified protein [1]
  Km: 40 µM
  kcat: 3.5 s⁻¹
  kcat/Km: 120000 M⁻¹ s⁻¹

B2: AldOAb (Actinomycetota bacterium) (protein)
chain: MTMRSTNWAGNVVYRASELHRPASLDELRRVVARSPKVRVLGSGHSFNEITDTEGALVSLEALPPEVEIDRATGTARVAAGLRYGELSARLHAAGYALPNLASLPHICVAGACATGTHGSGDGIGGLAGSVTAVELVTADGDLVTLSRDADPDRFPGAVVSLGALGAVVTMTLRLEPAFQVRQRVYENLPAEALDDHFDEIMASGYSVSLFTDWRGDRIRQVWVKERVGDPAAGGEEREPVVAALGATPADGPRHPVPGMPAANCTEQLGVPGPWHERLPHFRLGFTPSSGDELQAEYLLPRRHAVAAFHALAGIADRIAPVLHISEIRTVAADDLWLSPFHGRNTVAFHFTWKPDEAAVREVLSLMEEVLAPFEPRPHWGKLFAIPPKVLRSRYDRIGDFRALARELDPSGKFANAFVAHHVLDDE
Purified protein [1]
  Km: 30 µM
  kcat: 4.2 s⁻¹
  kcat/Km: 140000 M⁻¹ s⁻¹

B3: AldOTf (Thermopolyspora flexuosa) (protein)
chain: MRSTNWAGNVVFRASELHRPASIDELRRVVARSPKVRVLGSGHSFNEITDTDGTLVSLDALPPEVEIDGATGTARISAGLRYGELSRRLHAAGHALANLASLPHICVAGACATGTHGSGDGNGGLATSVTAVELVTGEGDLVTLSRDADPDRFPGAVVSLGALGVVVAMTLRLVPAFEVRQRVYENLPAEALAGHFDEIMASGYSVSLFTDWRGDRISQVWVKERVDASSGAPGDEREPVVAALGATPADGPRHPVPGMPAVNCTEQLGVPGPWFERLPHFRPEFTPSSGDELQAEYLLPRRHAVAAFQALAGIADRIAPVLHISEIRTVAADDLWLSPFHGRDTVAFHFTWKRDEAAVLDVLGLMEDVLAPFEPRPHWGKLFTIPPKVLHSRYDRMADFRALARELDPAGKFANAFVARHVLEIE
Purified protein [2]
  Km: 50000 µM
  kcat: 1.6 s⁻¹
  kcat/Km: 32 M⁻¹ s⁻¹
Purified protein [1]
  Km: 30 µM
  kcat: 3.1 s⁻¹
  kcat/Km: 100000 M⁻¹ s⁻¹
